Data on 15 molecules can be found in patent US20220177604A1 (ARGENX, published 2022).

B1: CL-2C mAb 1 (antibody, V domains shown)
VH: QVQLVQSGAEVMKPGSSVKVSCKASGYTFSWYWLEWVRQAPGHGLEWMGEIDPGTFTTHYNEKFKARVTFTADTSTSTAYMELSSLRSEDTAVYYCARFSHFSGSHYDYFDYWGQGTLVTVSS
VL: EIVMTQSPATLSVSPGERATLSCRASQHIGTNIHWYQQKPGQAPRLLIYYASESISGIPARFSGSGSGTEFTLTISSLQSEDFAVYYCQQSWSHPTTFGGGTKVEIK
notes: also called CL-20 mAb 1; VK28H94H + VH58H100BH
B2: CL-2C mAb 14 (antibody, V domains shown)
VH: QVQLVQSGAEVMKPGSSVKVSCKASGYTFSWYHLEWVRQAPGHGLEWMGEIDPGTFTTNYNEKFKARVTFTADTSTSTAYMELSSLRSEDTAVYYCARFSHFSGHNYDYFDYWGQGTLVTVSS
VL: EIVMTQSPATLSVSPGERATLSCRASQSIGTNIHWYQQKPGQAPRLLIYHASESISGIPARFSGSGSGTEFTLTISSLQSEDFAVYYCQQSWSHPTTFGGGTKVEIK
notes: also called VK50H94H + VH33H100AH
B3: CL-2C mAb 15 (antibody, V domains shown)
VH: QVQLVQSGAEVMKPGSSVKVSCKASGYTFSWYWLEWVRQAPGHGLEWMGEIDPGTFTTNYNEKFKARVTFTADTSTSTAYMELSSLRSEDTAVYYCARFSHFSGSNYDYFDYWGQGTLVTVSS
VL: EIVMTQSPATLSVSPGERATLSCRASQSIGTNIHWYQQKPGQAPRLLIYHASESISGIPARFSGSGSGTEFTLTISSLQSEDFAVYYCQQSWSHPTTFGGGTKVEIK
notes: also called VK50H94H + VHWT
B4: CL-2C mAb 7 (antibody, V domains shown)
VH: QVQLVQSGAEVMKPGSSVKVSCKASGYTFSWYHLEWVRQAPGHGLEWMGEIDPGTFTTNYNEKFKARVTFTADTSTSTAYMELSSLRSEDTAVYYCARFSHFSGSNHDYFDYWGQGTLVTVSS
VL: EIVMTQSPATLSVSPGERATLSCRASQSIGTNIHWYQQKPGQAPRLLIYHASESISGIPARFSGSGSGTEFTLTISSLQSEDFAVYYCHQSDSWPTTFGGGTKVEIK
notes: also called VK50H92D89H + VH33H100CH
B5: CL-2C mAb 12 (antibody, V domains shown)
VH: QVQLVQSGAEVMKPGSSVKVSCKASGYTFSWYHLEWVRQAPGHGLEWMGEIDPGTFTTNYNEKFKARVTFTADTSTSTAYMELSSLRSEDTAVYYCARFSHFSGSNHDYFDYWGQGTLVTVSS
VL: EIVMTQSPATLSVSPGERATLSCRASQSIGTNIHWYQQKPGQAPRLLIYHASESISGIPARFSGSGSGTEFTLTISSLQSEDFAVYYCQQSWSHPTTFGGGTKVEIK
notes: also called VK50H94H + VH33H100CH
B6: CL-2C mAb 2 (antibody, V domains shown)
VH: QVQLVQSGAEVMKPGSSVKVSCKASGYTFSWYHLEWVRQAPGHGLEWMGEIDPGTFTTNYNEKFKARVTFTADTSTSTAYMELSSLRSEDTAVYYCARFSHFSGSNHDYFDYWGQGTLVTVSS
VL: EIVMTQSPATLSVSPGERATLSCRASQHIGTNIHWYQQKPGQAPRLLIYYASESISGIPARFSGSGSGTEFTLTISSLQSEDFAVYYCQQSWSHPTTFGGGTKVEIK
notes: also called CL-20 mAb 2; VK28H94H + VH33H100CH
B7: CL-2C mAb 11 (antibody, V domains shown)
VH: QVQLVQSGAEVMKPGSSVKVSCKASGYTFSWYWLEWVRQAPGHGLEWMGEIDPGTFTTHYNEKFKARVTFTADTSTSTAYMELSSLRSEDTAVYYCARFSHFSGSHYDYFDYWGQGTLVTVSS
VL: EIVMTQSPATLSVSPGERATLSCRASQSIGTNIHWYQQKPGQAPRLLIYHASESISGIPARFSGSGSGTEFTLTISSLQSEDFAVYYCQQSWSHPTTFGGGTKVEIK
notes: also called VK50H94H + VH58H100BH
B8: CL-2C mAb 4 (antibody, V domains shown)
VH: QVQLVQSGAEVMKPGSSVKVSCKASGYTFSWYHLEWVRQAPGHGLEWMGEIDPGTFTTNYNEKFKARVTFTADTSTSTAYMELSSLRSEDTAVYYCARFSHFSGHNYDYFDYWGQGTLVTVSS
VL: EIVMTQSPATLSVSPGERATLSCRASQHIGTNIHWYQQKPGQAPRLLIYYASESISGIPARFSGSGSGTEFTLTISSLQSEDFAVYYCQQSWSHPTTFGGGTKVEIK
notes: also called VK28H94H + VH33H100AH
B9: CL-2C mAb 10 (antibody, V domains shown)
VH: QVQLVQSGAEVMKPGSSVKVSCKASGYTFSWYWLEWVRQAPGHGLEWMGEIDPGTFTTNYNEKFKARVTFTADTSTSTAYMELSSLRSEDTAVYYCARFSHFSGSNYDYFDYWGQGTLVTVSS
VL: EIVMTQSPATLSVSPGERATLSCRASQSIGTNIHWYQQKPGQAPRLLIYHASESISGIPARFSGSGSGTEFTLTISSLQSEDFAVYYCHQSDSWPTTFGGGTKVEIK
notes: also called VK50H92D89H + VHWT
B10: CL-2C mAb 9 (antibody, V domains shown)
VH: QVQLVQSGAEVMKPGSSVKVSCKASGYTFSWYHLEWVRQAPGHGLEWMGEIDPGTFTTNYNEKFKARVTFTADTSTSTAYMELSSLRSEDTAVYYCARFSHFSGHNYDYFDYWGQGTLVTVSS
VL: EIVMTQSPATLSVSPGERATLSCRASQSIGTNIHWYQQKPGQAPRLLIYHASESISGIPARFSGSGSGTEFTLTISSLQSEDFAVYYCHQSDSWPTTFGGGTKVEIK
notes: also called VK50H92D89H + VH33H100AH
B11: CL-2C mAb 5 (antibody, V domains shown)
VH: QVQLVQSGAEVMKPGSSVKVSCKASGYTFSWYWLEWVRQAPGHGLEWMGEIDPGTFTTNYNEKFKARVTFTADTSTSTAYMELSSLRSEDTAVYYCARFSHFSGSNYDYFDYWGQGTLVTVSS
VL: EIVMTQSPATLSVSPGERATLSCRASQHIGTNIHWYQQKPGQAPRLLIYYASESISGIPARFSGSGSGTEFTLTISSLQSEDFAVYYCQQSWSHPTTFGGGTKVEIK
notes: also called VK28H94H + VHWT
B12: CL-2C mAb 13 (antibody, V domains shown)
VH: QVQLVQSGAEVMKPGSSVKVSCKASGYTFSWYHLEWVRQAPGHGLEWMGEIDPGTFTTNYNEKFKARVTFTADTSTSTAYMELSSLRSEDTAVYYCARFSHFSGSHYDYFDYWGQGTLVTVSS
VL: EIVMTQSPATLSVSPGERATLSCRASQSIGTNIHWYQQKPGQAPRLLIYHASESISGIPARFSGSGSGTEFTLTISSLQSEDFAVYYCQQSWSHPTTFGGGTKVEIK
notes: also called VK50H94H + VH33H100BH
B13: CL-2C mAb 8 (antibody, V domains shown)
VH: QVQLVQSGAEVMKPGSSVKVSCKASGYTFSWYHLEWVRQAPGHGLEWMGEIDPGTFTTNYNEKFKARVTFTADTSTSTAYMELSSLRSEDTAVYYCARFSHFSGSHYDYFDYWGQGTLVTVSS
VL: EIVMTQSPATLSVSPGERATLSCRASQSIGTNIHWYQQKPGQAPRLLIYHASESISGIPARFSGSGSGTEFTLTISSLQSEDFAVYYCHQSDSWPTTFGGGTKVEIK
notes: also called VK50H92D89H + VH33H100BH
B14: CL-2C mAb 3 (antibody, V domains shown)
VH: QVQLVQSGAEVMKPGSSVKVSCKASGYTFSWYHLEWVRQAPGHGLEWMGEIDPGTFTTNYNEKFKARVTFTADTSTSTAYMELSSLRSEDTAVYYCARFSHFSGSHYDYFDYWGQGTLVTVSS
VL: EIVMTQSPATLSVSPGERATLSCRASQHIGTNIHWYQQKPGQAPRLLIYYASESISGIPARFSGSGSGTEFTLTISSLQSEDFAVYYCQQSWSHPTTFGGGTKVEIK
notes: also called VK28H94H + VH33H100BH
B15: CL-2C mAb 6 (antibody, V domains shown)
VH: QVQLVQSGAEVMKPGSSVKVSCKASGYTFSWYWLEWVRQAPGHGLEWMGEIDPGTFTTHYNEKFKARVTFTADTSTSTAYMELSSLRSEDTAVYYCARFSHFSGSHYDYFDYWGQGTLVTVSS
VL: EIVMTQSPATLSVSPGERATLSCRASQSIGTNIHWYQQKPGQAPRLLIYHASESISGIPARFSGSGSGTEFTLTISSLQSEDFAVYYCHQSDSWPTTFGGGTKVEIK
notes: also called VK50H92D89H + VH58H100BH

The experiment deals with T1, human immunoglobulin E (hIgE) (human, UniProt P01854-1 1-428).
T1 construct: also called human IgE; Native IgE (Abcam)
T1 sequence (P01854 whole entry): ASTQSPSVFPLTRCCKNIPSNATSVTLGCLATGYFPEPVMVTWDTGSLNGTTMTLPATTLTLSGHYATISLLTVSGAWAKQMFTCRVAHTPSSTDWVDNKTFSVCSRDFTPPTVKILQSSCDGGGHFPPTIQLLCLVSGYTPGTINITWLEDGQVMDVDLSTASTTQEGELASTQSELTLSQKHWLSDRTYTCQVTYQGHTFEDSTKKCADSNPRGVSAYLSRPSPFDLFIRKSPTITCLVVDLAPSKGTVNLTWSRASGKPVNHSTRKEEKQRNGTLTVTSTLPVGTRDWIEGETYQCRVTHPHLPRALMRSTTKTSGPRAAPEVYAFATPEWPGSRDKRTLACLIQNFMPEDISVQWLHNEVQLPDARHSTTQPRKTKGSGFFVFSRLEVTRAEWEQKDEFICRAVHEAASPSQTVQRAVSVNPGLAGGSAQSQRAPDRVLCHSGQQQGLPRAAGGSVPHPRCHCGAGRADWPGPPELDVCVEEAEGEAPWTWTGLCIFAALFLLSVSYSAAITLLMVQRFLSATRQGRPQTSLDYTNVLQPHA
In words: SPR (Biacore) on hIgE.
Protocol: The ratio of KD measured at pH 5.5 versus KD measured at pH 7.4 was calculated for each of the CL-2C antibodies.
B1: the “KD Ratio pH 5.5/pH 7.4” value came to 4.6.

On to B2, for which the “KD Ratio pH 5.5/pH 7.4” value is 3.2.

For B3, the “KD Ratio pH 5.5/pH 7.4” value turned out to be 1.1.

Turning to B4, the “KD Ratio pH 5.5/pH 7.4” value was 7.9.

As for B5, the “KD Ratio pH 5.5/pH 7.4” value came out at 3.9.

B6: the “KD Ratio pH 5.5/pH 7.4” value is 8.5.

With B7, the “KD Ratio pH 5.5/pH 7.4” value amounted to 6.

B8: the “KD Ratio pH 5.5/pH 7.4” value amounted to 3.3.

B9: the “KD Ratio pH 5.5/pH 7.4” value worked out at 0.7.

For the molecule B10, the “KD Ratio pH 5.5/pH 7.4” value was 2.5.

Regarding B11, the “KD Ratio pH 5.5/pH 7.4” value stood at 0.3.

For the molecule B12, the “KD Ratio pH 5.5/pH 7.4” value came out at 17.3.

As to B13, the “KD Ratio pH 5.5/pH 7.4” value was found to be 2.8.

Consider B14, for which the “KD Ratio pH 5.5/pH 7.4” value came out at 8.4.

B15: the “KD Ratio pH 5.5/pH 7.4” value came out at 6.1.
